From paper PMC7442819, “Taf14 recognizes a common motif in transcriptional machineries and facilitates their clustering by phase separation” (Nature Communications, 2020)

B1: Ino80_(368–390) [Saccharomyces cerevisiae] / Taf14ET (Taf14_(174–244)) [Saccharomyces cerevisiae] (parent complex)
chain 1: DSKLNIKITLKQYHVKRLKKLIN
chain 2: KGSVDLEKLAFGLTKLNEDDLVGVVQMVTDNKTPEMNVTNNVEEGEFIIDLYSLPEGLLKSLWDYVKKNTE
B2: Sth1^WT-TAP [Saccharomyces cerevisiae] / Taf14-HA [Saccharomyces cerevisiae] (parent complex)
chain 1: MLQEQSELMSTVMNNTPTTVAALAAVAAASETNGKLGSEEQPEITIPKPRSSAQLEQLLYRYRAIQNHPKENKLEIKAIEDTFRNISRDQDIYETKLDTLRKSIDKGFQYDEDLLNKHLVALQLLEKDTDVPDYFLDLPDTKNDNTTAIEVDYSEKKPIKISADFNAKAKSLGLESKFSNATKTALGDPDTEIRISARISNRINELERLPANLGTYSLDDCLEFITKDDLSSRMDTFKIKALVELKSLKLLTKQKSIRQKLINNVASQAHHNIPYLRDSPFTAAAQRSVQIRSKVIVPQTVRLAEELERQQLLEKRKKERNLHLQKINSIIDFIKERQSEQWSRQERCFQFGRLGASLHNQMEKDEQKRIERTAKQRLAALKSNDEEAYLKLLDQTKDTRITQLLRQTNSFLDSLSEAVRAQQNEAKILHGEEVQPITDEEREKTDYYEVAHRIKEKIDKQPSILVGGTLKEYQLRGLEWMVSLYNNHLNGILADEMGLGKTIQSISLITYLYEVKKDIGPFLVIVPLSTITNWTLEFEKWAPSLNTIIYKGTPNQRHSLQHQIRVGNFDVLLTTYEYIIKDKSLLSKHDWAHMIIDEGHRMKNAQSKLSFTISHYYRTRNRLILTGTPLQNNLPELWALLNFVLPKIFNSAKTFEDWFNTPFANTGTQEKLELTEEETLLIIRRLHKVLRPFLLRRLKKEVEKDLPDKVEKVIKCKLSGLQQQLYQQMLKHNALFVGAGTEGATKGGIKGLNNKIMQLRKICNHPFVFDEVEGVVNPSRGNSDLLFRVAGKFELLDRVLPKFKASGHRVLMFFQMTQVMDIMEDFLRMKDLKYMRLDGSTKTEERTEMLNAFNAPDSDYFCFLLSTRAGGLGLNLQTADTVIIFDTDWNPHQDLQAQDRAHRIGQKNEVRILRLITTDSVEEVILERAMQKLDIDGKVIQAGKFDNKSTAEEQEAFLRRLIESETNRDDDDKAELDDDELNDTLARSADEKILFDKIDKERMNQERADAKAQGLRVPPPRLIQLDELPKVFREDIEEHFKKEDSEPLGRIRQKKRVYYDDGLTEEQFLEAVEDDNMSLEDAIKKRREARERRRLRQNGTKENEIETLENTPEASETSLIENNSFTAAVDEETNADKETTASRSKRRSSRKKRTISIVTAEDKENTQEESTSQENGGAKVEEEVKSSSVEIINGSESKKKKPKLTVKIKLNKTTVLENNDGKRAEEKPESKSPAKKTAAKKTKTKSKSLGIFPTVEKLVEEMREQLDEVDSHPRTSIFEKLPSKRDYPDYFKVIEKPMAIDIILKNCKNGTYKTLEEVRQALQTMFENARFYNEEGSWVYVDADKLNEFTDEWFKEHSS
chain 2: MVATVKRTIRIKTQQHILPEVPPVENFPVRQWSIEIVLLDDEGKEIPATIFDKVIYHLHPTFANPNRTFTDPPFRIEEQGWGGFPLDISVFLLEKAGERKIPHDLNFLQESYEVEHVIQIPLNKPLLTEELAKSGSTEETTANTGTIGKRRTTTNTTAEPKAKRAKTGSASTVKGSVDLEKLAFGLTKLNEDDLVGVVQMVTDNKTPEMNVTNNVEEGEFIIDLYSLPEGLLKSLWDYVKKNTE
B3: Sth1EBM (Sth1_(1183–1240)) [Saccharomyces cerevisiae] / Taf14ET (Taf14_(174–244)) [Saccharomyces cerevisiae] (parent complex)
chain 1: EVKSSSVEIINGSESKKKKPKLTVKIKLNKTTVLENNDGKRAEEKPESKSPAKKTAAK
chain 2: B1 chain 2
B4: Snf5_(771–800) [Saccharomyces cerevisiae] / Taf14ET (Taf14_(174–244)) [Saccharomyces cerevisiae] (parent complex)
chain 1: SPPCYIIDHIPGHSLLLSIKLPGKVNTKEE
chain 2: B1 chain 2

Variants of: B1
Test: ITC; parent: 250 nM

Kd [µM]	Variant
3.86	chain 1 I6A
3.87	chain 1 L10A

Variants of: B2
Test: Co-immunoprecipitation; IP: HA; IB: anti-TAP; parent: 1

ratio to parent	Variant
0.38	chain 1 L1204A, chain 1 V1206A, chain 1 I1208A, chain 1 L1210A

Variants of: B3
Test: ITC; parent: 50 nM

Variant	Kd [µM]
chain 1 I26A	13.4
chain 1 K27E	3.94
chain 1 K25E	7.69

More lines, now with the values ahead:

Kd [µM]	Variant
1.14	chain 1 L28A
2.04	chain 1 V24A
2.06	chain 1 L22A

Variants of: B3
Test: ITC; parent: 50 nM
Remark: another data set of the same source

Kd [µM]	Variant
0.68	chain 2 F47A
3.5	chain 2 F47R

Variants of: B4
Test: ITC; parent: 2.48e+03 nM

Kd [µM]	Variant
41.5	chain 1 L17A
189	chain 1 I19A
